Starred links: 1 amine or outer side, 2 acyl side, 3 side chain; linkers in the order of their positions; H or OH if unused. Non-standard residues stand in square brackets, D forms with d. Groups on a side chain read outwards from the residue. No end group written: not given here. *: point of attachment. C18 diacid = O=C(O)CCCCCCCCCCCCCCCCC(=O)*; γGlu = O=C(O)[C@H](CCC(=O)[*:2])N[*:1]; Palmitoyl = CCCCCCCCCCCCCCCC(=O)*; AEEA = NCCOCCOCC(=O)O; Aib = CC(C)(N)C(=O)O

The assay deals with human corticotropin-releasing factor 2α (CRF2 α receptor) (human), Q13324. Put plainly: cell-based or functional assay.
human corticotropin-releasing factor 2α (CRF2 α receptor) (human), Q13324, sequence (Q13324 20-411): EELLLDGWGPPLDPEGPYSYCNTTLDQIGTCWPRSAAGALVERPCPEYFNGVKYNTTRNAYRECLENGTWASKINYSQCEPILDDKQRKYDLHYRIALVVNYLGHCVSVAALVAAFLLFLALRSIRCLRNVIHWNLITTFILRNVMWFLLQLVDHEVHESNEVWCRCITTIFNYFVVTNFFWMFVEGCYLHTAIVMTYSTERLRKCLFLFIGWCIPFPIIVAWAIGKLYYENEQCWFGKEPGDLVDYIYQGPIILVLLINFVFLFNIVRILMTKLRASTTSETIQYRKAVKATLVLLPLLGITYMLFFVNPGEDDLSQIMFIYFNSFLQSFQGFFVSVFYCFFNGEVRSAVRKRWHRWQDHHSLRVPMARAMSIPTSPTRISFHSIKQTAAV

B1: SEQ ID NO: 1 (peptide)
peptide: IVLSLDVPIGLK([γGlu-Palmitoyl])QILLEQEKQEKEKQQAETNAQILAQV-NH2
modifications: N-terminus assumed
SMILES: CCCCCCCCCCCCCCCC(=O)N[C@@H](CCC(=O)NCCCC[C@H](NC(=O)[C@H](CC(C)C)NC(=O)CNC(=O)[C@@H](NC(=O)[C@@H]1CCCN1C(=O)[C@@H](NC(=O)[C@H](CC(=O)O)NC(=O)[C@H](CC(C)C)NC(=O)[C@H](CO)NC(=O)[C@H](CC(C)C)NC(=O)[C@@H](NC(=O)[C@@H](N)[C@@H](C)CC)C(C)C)C(C)C)[C@@H](C)CC)C(=O)N[C@@H](CCC(N)=O)C(=O)N[C@H](C(=O)N[C@@H](CC(C)C)C(=O)N[C@@H](CC(C)C)C(=O)N[C@@H](CCC(=O)O)C(=O)N[C@@H](CCC(N)=O)C(=O)N[C@@H](CCC(=O)O)C(=O)N[C@@H](CCCCN)C(=O)N[C@@H](CCC(N)=O)C(=O)N[C@@H](CCC(=O)O)C(=O)N[C@@H](CCCCN)C(=O)N[C@@H](CCC(=O)O)C(=O)N[C@@H](CCCCN)C(=O)N[C@@H](CCC(N)=O)C(=O)N[C@@H](CCC(N)=O)C(=O)N[C@@H](C)C(=O)N[C@@H](CCC(=O)O)C(=O)N[C@H](C(=O)N[C@@H](CC(N)=O)C(=O)N[C@@H](C)C(=O)N[C@@H](CCC(N)=O)C(=O)N[C@H](C(=O)N[C@@H](CC(C)C)C(=O)N[C@@H](C)C(=O)N[C@@H](CCC(N)=O)C(=O)N[C@H](C(N)=O)C(C)C)[C@@H](C)CC)[C@@H](C)O)[C@@H](C)CC)C(=O)O
B1: the EC50 [nM], 0% HSA amounted to 0.01 nM.

B2: SEQ ID NO: 34 (peptide)
peptide: FTLSLDVPTKIK([AEEA-AEEA-γGlu-C18 diacid])QKLLKQEKQKKQRQKAKTNKQILEQV-NH2
modifications: N-terminus assumed
SMILES: CC[C@H](C)[C@H](NC(=O)[C@H](CCC(N)=O)NC(=O)[C@H](CCCCN)NC(=O)[C@H](CC(N)=O)NC(=O)[C@@H](NC(=O)[C@H](CCCCN)NC(=O)[C@H](C)NC(=O)[C@H](CCCCN)NC(=O)[C@H](CCC(N)=O)NC(=O)[C@H](CCCNC(=N)N)NC(=O)[C@H](CCC(N)=O)NC(=O)[C@H](CCCCN)NC(=O)[C@H](CCCCN)NC(=O)[C@H](CCC(N)=O)NC(=O)[C@H](CCCCN)NC(=O)[C@H](CCC(=O)O)NC(=O)[C@H](CCC(N)=O)NC(=O)[C@H](CCCCN)NC(=O)[C@H](CC(C)C)NC(=O)[C@H](CC(C)C)NC(=O)[C@H](CCCCN)NC(=O)[C@H](CCC(N)=O)NC(=O)[C@H](CCCCNC(=O)COCCOCCNC(=O)COCCOCCNC(=O)CC[C@H](NC(=O)CCCCCCCCCCCCCCCCC(=O)O)C(=O)O)NC(=O)[C@@H](NC(=O)[C@H](CCCCN)NC(=O)[C@@H](NC(=O)[C@@H]1CCCN1C(=O)[C@@H](NC(=O)[C@H](CC(=O)O)NC(=O)[C@H](CC(C)C)NC(=O)[C@H](CO)NC(=O)[C@H](CC(C)C)NC(=O)[C@@H](NC(=O)[C@@H](N)Cc1ccccc1)[C@@H](C)O)C(C)C)[C@@H](C)O)[C@@H](C)CC)[C@@H](C)O)C(=O)N[C@@H](CC(C)C)C(=O)N[C@@H](CCC(=O)O)C(=O)N[C@@H](CCC(N)=O)C(=O)N[C@H](C(N)=O)C(C)C
For the molecule B2, the EC50 [nM], 0% HSA stood at 6.88 nM.

B3: SEQ ID NO: 37 (peptide)
peptide: IVLSLDVPTKLK([AEEA-AEEA-γGlu-C18 diacid])QKLLKQERQRKERQQAETNKRILERV-NH2
modifications: N-terminus assumed
SMILES: CC[C@H](C)[C@H](N)C(=O)N[C@H](C(=O)N[C@@H](CC(C)C)C(=O)N[C@@H](CO)C(=O)N[C@@H](CC(C)C)C(=O)N[C@@H](CC(=O)O)C(=O)N[C@H](C(=O)N1CCC[C@H]1C(=O)N[C@H](C(=O)N[C@@H](CCCCN)C(=O)N[C@@H](CC(C)C)C(=O)N[C@@H](CCCCNC(=O)COCCOCCNC(=O)COCCOCCNC(=O)CC[C@H](NC(=O)CCCCCCCCCCCCCCCCC(=O)O)C(=O)O)C(=O)N[C@@H](CCC(N)=O)C(=O)N[C@@H](CCCCN)C(=O)N[C@@H](CC(C)C)C(=O)N[C@@H](CC(C)C)C(=O)N[C@@H](CCCCN)C(=O)N[C@@H](CCC(N)=O)C(=O)N[C@@H](CCC(=O)O)C(=O)N[C@@H](CCCNC(=N)N)C(=O)N[C@@H](CCC(N)=O)C(=O)N[C@@H](CCCNC(=N)N)C(=O)N[C@@H](CCCCN)C(=O)N[C@@H](CCC(=O)O)C(=O)N[C@@H](CCCNC(=N)N)C(=O)N[C@@H](CCC(N)=O)C(=O)N[C@@H](CCC(N)=O)C(=O)N[C@@H](C)C(=O)N[C@@H](CCC(=O)O)C(=O)N[C@H](C(=O)N[C@@H](CC(N)=O)C(=O)N[C@@H](CCCCN)C(=O)N[C@@H](CCCNC(=N)N)C(=O)N[C@H](C(=O)N[C@@H](CC(C)C)C(=O)N[C@@H](CCC(=O)O)C(=O)N[C@@H](CCCNC(=N)N)C(=O)N[C@H](C(N)=O)C(C)C)[C@@H](C)CC)[C@@H](C)O)[C@@H](C)O)C(C)C)C(C)C
Turning to B3, the EC50 [nM], 0% HSA was determined as 1.6 nM.

B4: SEQ ID NO: 33 (peptide)
peptide: IVLSLD[dV]PTKLK([γGlu-Palmitoyl])QKLLKQERQRKEREQAEKNTRILERV-NH2
modifications: N-terminus assumed
SMILES: CCCCCCCCCCCCCCCC(=O)N[C@@H](CCC(=O)NCCCC[C@H](NC(=O)[C@H](CC(C)C)NC(=O)[C@H](CCCCN)NC(=O)[C@@H](NC(=O)[C@@H]1CCCN1C(=O)[C@H](NC(=O)[C@H](CC(=O)O)NC(=O)[C@H](CC(C)C)NC(=O)[C@H](CO)NC(=O)[C@H](CC(C)C)NC(=O)[C@@H](NC(=O)[C@@H](N)[C@@H](C)CC)C(C)C)C(C)C)[C@@H](C)O)C(=O)N[C@@H](CCC(N)=O)C(=O)N[C@@H](CCCCN)C(=O)N[C@@H](CC(C)C)C(=O)N[C@@H](CC(C)C)C(=O)N[C@@H](CCCCN)C(=O)N[C@@H](CCC(N)=O)C(=O)N[C@@H](CCC(=O)O)C(=O)N[C@@H](CCCNC(=N)N)C(=O)N[C@@H](CCC(N)=O)C(=O)N[C@@H](CCCNC(=N)N)C(=O)N[C@@H](CCCCN)C(=O)N[C@@H](CCC(=O)O)C(=O)N[C@@H](CCCNC(=N)N)C(=O)N[C@@H](CCC(=O)O)C(=O)N[C@@H](CCC(N)=O)C(=O)N[C@@H](C)C(=O)N[C@@H](CCC(=O)O)C(=O)N[C@@H](CCCCN)C(=O)N[C@@H](CC(N)=O)C(=O)N[C@H](C(=O)N[C@@H](CCCNC(=N)N)C(=O)N[C@H](C(=O)N[C@@H](CC(C)C)C(=O)N[C@@H](CCC(=O)O)C(=O)N[C@@H](CCCNC(=N)N)C(=O)N[C@H](C(N)=O)C(C)C)[C@@H](C)CC)[C@@H](C)O)C(=O)O
B4 came in with an EC50 [nM], 0% HSA of 0.2 nM.

B5: SEQ ID NO: 35 (peptide)
peptide: IVLSLDVPIKLK([AEEA-AEEA-γGlu-C18 diacid])KILLEQEKQKKQREQAETNKQILAQV-NH2
modifications: N-terminus assumed
SMILES: CC[C@H](C)[C@H](N)C(=O)N[C@H](C(=O)N[C@@H](CC(C)C)C(=O)N[C@@H](CO)C(=O)N[C@@H](CC(C)C)C(=O)N[C@@H](CC(=O)O)C(=O)N[C@H](C(=O)N1CCC[C@H]1C(=O)N[C@H](C(=O)N[C@@H](CCCCN)C(=O)N[C@@H](CC(C)C)C(=O)N[C@@H](CCCCNC(=O)COCCOCCNC(=O)COCCOCCNC(=O)CC[C@H](NC(=O)CCCCCCCCCCCCCCCCC(=O)O)C(=O)O)C(=O)N[C@@H](CCCCN)C(=O)N[C@H](C(=O)N[C@@H](CC(C)C)C(=O)N[C@@H](CC(C)C)C(=O)N[C@@H](CCC(=O)O)C(=O)N[C@@H](CCC(N)=O)C(=O)N[C@@H](CCC(=O)O)C(=O)N[C@@H](CCCCN)C(=O)N[C@@H](CCC(N)=O)C(=O)N[C@@H](CCCCN)C(=O)N[C@@H](CCCCN)C(=O)N[C@@H](CCC(N)=O)C(=O)N[C@@H](CCCNC(=N)N)C(=O)N[C@@H](CCC(=O)O)C(=O)N[C@@H](CCC(N)=O)C(=O)N[C@@H](C)C(=O)N[C@@H](CCC(=O)O)C(=O)N[C@H](C(=O)N[C@@H](CC(N)=O)C(=O)N[C@@H](CCCCN)C(=O)N[C@@H](CCC(N)=O)C(=O)N[C@H](C(=O)N[C@@H](CC(C)C)C(=O)N[C@@H](C)C(=O)N[C@@H](CCC(N)=O)C(=O)N[C@H](C(N)=O)C(C)C)[C@@H](C)CC)[C@@H](C)O)[C@@H](C)CC)[C@@H](C)CC)C(C)C)C(C)C
Turning to B5, the EC50 [nM], 0% HSA is 0.24 nM and the EC50 [nM], 0.1% HSA came out at 3.82 nM.

B6: SEQ ID NO: 36 (peptide)
peptide: IVLSLD[dV]PTKLK([AEEA-AEEA-γGlu-C18 diacid])QKLLKQERQRK[Aib]REQAEKNKRILERV-NH2
modifications: N-terminus assumed
SMILES: CC[C@H](C)[C@H](N)C(=O)N[C@H](C(=O)N[C@@H](CC(C)C)C(=O)N[C@@H](CO)C(=O)N[C@@H](CC(C)C)C(=O)N[C@@H](CC(=O)O)C(=O)N[C@@H](C(=O)N1CCC[C@H]1C(=O)N[C@H](C(=O)N[C@@H](CCCCN)C(=O)N[C@@H](CC(C)C)C(=O)N[C@@H](CCCCNC(=O)COCCOCCNC(=O)COCCOCCNC(=O)CC[C@H](NC(=O)CCCCCCCCCCCCCCCCC(=O)O)C(=O)O)C(=O)N[C@@H](CCC(N)=O)C(=O)N[C@@H](CCCCN)C(=O)N[C@@H](CC(C)C)C(=O)N[C@@H](CC(C)C)C(=O)N[C@@H](CCCCN)C(=O)N[C@@H](CCC(N)=O)C(=O)N[C@@H](CCC(=O)O)C(=O)N[C@@H](CCCNC(=N)N)C(=O)N[C@@H](CCC(N)=O)C(=O)N[C@@H](CCCNC(=N)N)C(=O)N[C@@H](CCCCN)C(=O)NC(C)(C)C(=O)N[C@@H](CCCNC(=N)N)C(=O)N[C@@H](CCC(=O)O)C(=O)N[C@@H](CCC(N)=O)C(=O)N[C@@H](C)C(=O)N[C@@H](CCC(=O)O)C(=O)N[C@@H](CCCCN)C(=O)N[C@@H](CC(N)=O)C(=O)N[C@@H](CCCCN)C(=O)N[C@@H](CCCNC(=N)N)C(=O)N[C@H](C(=O)N[C@@H](CC(C)C)C(=O)N[C@@H](CCC(=O)O)C(=O)N[C@@H](CCCNC(=N)N)C(=O)N[C@H](C(N)=O)C(C)C)[C@@H](C)CC)[C@@H](C)O)C(C)C)C(C)C
Consider B6, for which the EC50 [nM], 0% HSA is 1.45 nM.
